Assay results from paper PMC8618983, “Investigation of the Transport Pathways Associated with Enhanced Brain Delivery of Peptide Drugs by Intranasal Coadministration with Penetratin” (Pharmaceutics, 2021).

How the values were obtained:
[1] = design: species or system Sprague-Dawley rats; settings: rat, in vivo
Description: We eluted the peptides with a 50 mM NaHCO3 solution and collected the eluted fractions containing the peptides. […] After adding 15 μL of trimethylamine to the Cy7-ester and peptide solution, we gently stirred the mixed solution overnight in the dark at room temperature. We desalted the resulting solution (1.94 mL) using a PD-10 column, eluted it with PBS (pH 7.4) with 0.001% methyl cellulose, and then adjusted its pH to 6.0. We obtained 4.0–6.0 mL of eluted solution and quantified the peptides by BCA assay or HPLC. We used the same analytical conditions for HPLC as previously described. […] We fed male Sprague-Dawley rats (seven weeks old) a nonfluorescent rodent diet (D10001) for a week before intranasal administration to avoid the intrinsic fluorescence of tissues. […] We performed the surgical procedure described by Hirai et al. to close the nasal cavity. Briefly, we incised the neck and cannulated the trachea and esophagus with polyethylene tubing (Hibiki No. 6) to maintain respiration and keep the solutions in the nasal cavity, respectively. We sealed the nasopalatine ducts with medical super glue (Aron Alpha A Sankyo, Daiichi-Sankyo Co., Ltd., Tokyo, Japan) to prevent the drainage of the solutions from the nasal cavity into the oral cavity. […] At the designated time points after administration (15, 30, and 60 or 120 min), we quickly exsanguinated the rats from the postcaval vein and flushed the administered solution by perfusion of PBS (pH 7.4). We decapitated the rats, carefully isolated the whole brain and right and left trigeminal nerves, and washed them with ice-cold PBS (pH 7.4). We placed the brain samples onto a brain matrix (MK-RC-01, Muromachi Kikai Co., Ltd., Tokyo, Japan) and sliced with blades (TCB-100) into twelve 2 mm-thick fractions. We placed the sliced brain and trigeminal nerve samples on a silicon board and mounted them on the stage of an in vivo imaging system (IVIS Lumina XR, Caliper Life sciences, Inc., Waltham, MA, USA). […] We quantified the fluorescence intensity of the region of interest of the images based on their contrast. To calculate the fluorescence intensity derived from Cy7 in the tissues, we subtracted the intrinsic fluorescence of an untreated area from the total intensity.

[2] = in vivo; cited from earlier work
Excerpt: During the permeation through the nasal mucosa, drugs come across microvascular vessels in the lamina propria directed toward the systemic circulation before reaching the brain or cerebrospinal fluid (CSF).

Substance | distribution in the trigeminal nerves [1] | distribution ratio (olfactory bulb/trigeminal nerves) [1] | delivery to the brain by intranasal coadministration with L-penetratin [2]
Cy7-Exendin-4: Exendin-4 labeled with the Cy7 fluorescent dye via Cy7 Mono NHS Ester | high even without L-penetratin | dominantly increased | –
Cy7-insulin: insulin labeled with the Cy7 fluorescent dye via Cy7 Mono NHS Ester | high even without L-penetratin | dominantly increased | –
leptin | – | – | significantly increased
